In publication PMC3378870 (Nucleic Acids Research, 2012):

B2: VapC toxin of Salmonella enterica serovar Typhimurium LT2 (enzyme)
chain: MLKFMLDTNTCIFTIKNKPEHIRERFNLNTSRMCISSITLMELIYGAEKSLAPERNLAVVEGFISRLEVLDYDTQAAIHTGQIRAELARKGTPVGPYDQMIAGHAGSRGLVVVTNNLREFERIPGIRIEDWC

Columns and labels:
VapB;VapC = target: T1, VapB;VapC (Salmonella enterica serovar Typhimurium …, UniProt Q7CPV2;Q8ZM86 1-75;1-132, |); experiment: EMSA
T1 sequence 1: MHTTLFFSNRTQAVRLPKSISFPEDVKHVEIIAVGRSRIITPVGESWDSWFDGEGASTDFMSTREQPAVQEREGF
T1 sequence 2: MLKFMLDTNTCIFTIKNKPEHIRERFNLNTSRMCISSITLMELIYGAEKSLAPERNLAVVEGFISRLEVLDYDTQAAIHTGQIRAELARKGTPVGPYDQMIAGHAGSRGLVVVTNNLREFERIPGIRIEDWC

[1] = target: the molecule itself
VapC Y72A variant = target: T2, VapC Y72A variant (Salmonella enterica serovar Typhimurium …, UniProt Q8ZM86 1-132, Y72A); experiment: native gel or EMSA
T2 sequence: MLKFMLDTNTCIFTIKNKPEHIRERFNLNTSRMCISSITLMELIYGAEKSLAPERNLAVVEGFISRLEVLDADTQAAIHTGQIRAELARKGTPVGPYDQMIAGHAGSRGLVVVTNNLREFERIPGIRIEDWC

VapC I44A variant = target: T3, VapC I44A variant (Salmonella enterica serovar Typhimurium …, UniProt Q8ZM86 1-132, I44A); experiment: native gel or EMSA
T3 sequence: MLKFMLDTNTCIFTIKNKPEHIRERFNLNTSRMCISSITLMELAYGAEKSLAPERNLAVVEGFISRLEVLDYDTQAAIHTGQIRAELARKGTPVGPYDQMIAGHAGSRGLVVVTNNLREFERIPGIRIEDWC

VapC A76S variant = target: T4, VapC A76S variant (Salmonella enterica serovar Typhimurium …, UniProt Q8ZM86 1-132, A76S); experiment: native gel or EMSA
T4 sequence: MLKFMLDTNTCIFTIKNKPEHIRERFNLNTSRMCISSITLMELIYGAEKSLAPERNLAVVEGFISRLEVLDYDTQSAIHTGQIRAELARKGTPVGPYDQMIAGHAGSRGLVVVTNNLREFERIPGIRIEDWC

VapC L43A variant = target: T5, VapC L43A variant (Salmonella enterica serovar Typhimurium …, UniProt Q8ZM86 1-132, L43A); experiment: native gel or EMSA
T5 sequence: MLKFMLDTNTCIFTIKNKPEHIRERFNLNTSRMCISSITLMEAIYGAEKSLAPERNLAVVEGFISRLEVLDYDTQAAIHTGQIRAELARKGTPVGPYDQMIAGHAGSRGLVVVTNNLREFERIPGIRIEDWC

[2] = target: B2; experiment: native gel or EMSA

B1: vapO1, 36 bp (dsDNA)
DNA 1: CTCATAATGGATATACGCGTTGTATATCCAGAAAGG
DNA 2: CCTTTCTGGATATACAACGCGTATATCCATTATGAG
VapB;VapC
  binding result: binds

## B2
[1]
  stoichiometry N: 2

B3: VapB antitoxin of Salmonella enterica serovar Typhimurium LT2 (natural protein, UniProt Q7CPV2 1-75, looked up)
chain: MHTTLFFSNRTQAVRLPKSISFPEDVKHVEIIAVGRSRIITPVGESWDSWFDGEGASTDFMSTREQPAVQEREGF
VapC Y72A variant
  binding result: binds
VapC I44A variant
  binding result: binds
VapC A76S variant
  binding result: binds
VapC L43A variant
  binding result: binds
[2]
  binding result: binds
